Key:
[1] = molecular target: Keap1 (Kelch domain) Kelch domain, 321-609 (UniProt Q14145); test: isothermal titration calorimetry; settings: reference: unphosphorylated WTX 20-mer peptide; sites S286
[2] = molecular target: Kelch domain of human Keap1 (residues 321-609) (human) (UniProt Q14145); test: ITC
Sequence of Kelch domain of human Keap1 (residues 321-609) (human) (Q14145 321-609): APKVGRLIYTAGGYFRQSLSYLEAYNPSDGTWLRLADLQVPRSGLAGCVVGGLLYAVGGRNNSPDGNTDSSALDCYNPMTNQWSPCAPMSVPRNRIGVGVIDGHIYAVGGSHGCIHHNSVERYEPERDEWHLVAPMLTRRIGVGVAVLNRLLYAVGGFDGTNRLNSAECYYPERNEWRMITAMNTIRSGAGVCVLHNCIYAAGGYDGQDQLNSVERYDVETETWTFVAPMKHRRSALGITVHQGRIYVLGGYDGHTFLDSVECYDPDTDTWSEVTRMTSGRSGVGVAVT

Row | Substance | KD [1] | Kd [2] | dH [2] | stoichiometry N [2]
1 | WTX Kelch-binding region (from UniProt Q5JTC6) WTX pS286 20-mer peptide | weaker; reference 0.25 ± 0.02 | – | – | –
2 | FAC1 peptide (20-mer) | – | 1100 nM | -15.1 kcal/mol | –
3 | PALB2 peptide (20-mer) | – | – | -19.3 kcal/mol | 1.01
4 | WTX peptide (20-mer, unphosphorylated) | – | 250 nM | -18 kcal/mol | 1.04
5 | PGAM5 peptide (20-mer) | – | 230 nM | -19.1 kcal/mol | 1.07
